The record followed here is the supplement of paper PMC7877785.

± gives the uncertainty stated by the source.

A short description of this data set: self-splicing fitness, log relative to wild type (ln ratio); higher = more splicing; Tetrahymena group I intron in knt gene, E. coli kanamycin selection, DiMSum; sequences stand for … in CUCUCU…GGAGGGAAAAGUUAUCAGGCAUGCACCUGGUAGCUAGUCUUUAAACCAAUAGAUUGCAUCGGUUUAAAAGGCAAGACCGUCAAAUUGCGGGAAAGGGGUCAACAGCCGUUCAGUACCAAGUCUCAGGGGAAACUUUGAGAUGGCCUUGCAAAGGGUAUGGUAAUAAGCUGACGGACAUGGUCCUAACCACGCAGCCAAGUCCUAAGUCAACAGAUCUUCUGUUGAUAUGGAUGCAGUUCACAGACUAAAUGUCGGUCGGGGAAGAUGUAUUCUUCUCAUAAGAUAUAGUCGGACCUCUCCUUAAUGGGAGCUAGCGGAUGAAGUGAUGCAACACUGGAGCCGCUGGGAACUAAUUUGUAUGCGAAAGUAUAUUGAUUAGUUUUGGAGUACUCGUGGUCG
The method, boiled down: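 Library with all eight P1ex-region intron nucleotides randomised, intron inside the knt kanamycin-resistance gene on pET-22b(+), in E. coli BL21(DE3). Cells grew overnight at 37°C or 30°C on LB agar with or without 25 μg/mL kanamycin (plus 100 μg/mL carbenicillin, 50 μM IPTG, 0.2% rhamnose), in six replicate transformations. Pooled colonies were amplicon-sequenced on Illumina HiSeq 2500. DiMSum fitness is the error-weighted combination of wild-type-normalised replicate fold changes, kanamycin versus none.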

As for CAGUAGCAAUAUUACGUUAG, the “self-splicing fitness (ln)” value runs as follows: (30 °C) -1.32 ± 0.072; (37 °C) 0.119 ± 0.096. Consider CAGUAGCAAUAUUACGUUCU, for which the “self-splicing fitness (ln)” value (37 °C) is -1.41 ± 0.2. Consider CAUAAGCAAUAUUACGAACU, for which the “self-splicing fitness (ln)” value (30 °C) is -2.47 ± 0.23 and the “self-splicing fitness (ln)” value (37 °C) is -2.69 ± 0.29. For CAUAAGCAAUAUUACGCGUA the same measures were -1.76 ± 0.11 and -2.02 ± 0.16. The like results for CAUAAGCAAUAUUACGGACC were, in that order, -3.27 ± 0.31 and -3.87 ± 0.23. For CAUAAGCAAUAUUACGGGUU the same measures were -3.37 ± 0.21 and -3.73 ± 0.24. Consider CAUAAGCAAUAUUACGGUGG, for which the “self-splicing fitness (ln)” value by setting is: (30 °C) -1.24 ± 0.075; (37 °C) -0.683 ± 0.088. For CAUAAGCAAUAUUACGGUGU the same measures were -3.84 ± 0.15 and -2.38 ± 0.14. The like results for CAUAAGCAAUAUUACGUGAU were, in that order, -3.26 ± 0.16 and -2.41 ± 0.16. Take CAUAAGCAAUAUUACGUUGC: the “self-splicing fitness (ln)” value was -4.07 ± 0.3 (30 °C) and -3.3 ± 0.3 (37 °C).

Turning to CAUAAGCAAUAUUACGUUUU, the “self-splicing fitness (ln)” value by setting is: (30 °C) -4.55 ± 0.22; (37 °C) -2.54 ± 0.15.

In the case of CAUCAGCAAUAUUACGAAUU, the “self-splicing fitness (ln)” value reads like this: (30 °C) -1.2 ± 0.11; (37 °C) -1.55 ± 0.14. The like results for CAUCAGCAAUAUUACGAGGG were, in that order, -2.04 ± 0.13 and -0.928 ± 0.12. For CAUCAGCAAUAUUACGAUGU, the “self-splicing fitness (ln)” value is -3.52 ± 0.15 (30 °C) and -2.58 ± 0.15 (37 °C). For CAUCAGCAAUAUUACGCACU the same measures were -1.99 ± 0.092 and -1.17 ± 0.098. For CAUCAGCAAUAUUACGCAUA the same measures were -1.59 ± 0.089 and -0.647 ± 0.1. Regarding CAUCAGCAAUAUUACGCCCC, the “self-splicing fitness (ln)” value (30 °C) was -1.56 ± 0.21. On to CAUCAGCAAUAUUACGCCUA, for which the “self-splicing fitness (ln)” value runs as follows: (30 °C) -1.55 ± 0.1; (37 °C) -1.03 ± 0.1.

For CAUCAGCAAUAUUACGCGAC, the “self-splicing fitness (ln)” value reads like this: (30 °C) -4.17 ± 0.29; (37 °C) -2.92 ± 0.22. For CAUCAGCAAUAUUACGCGUA the same measures were -0.586 ± 0.089 and -0.774 ± 0.083. The like results for CAUCAGCAAUAUUACGCUAU were, in that order, -2.87 ± 0.13 and -2.64 ± 0.2. The like results for CAUCAGCAAUAUUACGCUCC were, in that order, -2.75 ± 0.24 and -2.3 ± 0.28.

For CAUCAGCAAUAUUACGGACA, the “self-splicing fitness (ln)” value reads like this: (30 °C) -0.235 ± 0.21; (37 °C) -1.16 ± 0.15.

For the sequence CAUCAGCAAUAUUACGGAGG, the “self-splicing fitness (ln)” value by setting is: (30 °C) -1.24 ± 0.12; (37 °C) -0.916 ± 0.14. The like results for CAUCAGCAAUAUUACGGCUC were, in that order, -1.91 ± 0.1 and -1.1 ± 0.12. For CAUCAGCAAUAUUACGGCUG the same measures were -1.76 ± 0.11 and -0.0705 ± 0.16.

Regarding CAUCAGCAAUAUUACGGGAC, the “self-splicing fitness (ln)” value (30 °C) was -3.95 ± 0.46 and the “self-splicing fitness (ln)” value (37 °C) is -2.51 ± 0.22. Consider CAUCAGCAAUAUUACGGUCG, for which the “self-splicing fitness (ln)” value was 0.0182 ± 0.075 (30 °C) and 0.236 ± 0.093 (37 °C). The like results for CAUCAGCAAUAUUACGGUUC were, in that order, -2.65 ± 0.14 and -0.935 ± 0.13. For CAUCAGCAAUAUUACGGUUU the same measures were -2.29 ± 0.079 and -0.832 ± 0.094. The like results for CAUCAGCAAUAUUACGUACU were, in that order, -2.68 ± 0.18 and -1.65 ± 0.22.

For the sequence CAUCAGCAAUAUUACGUCAA, the “self-splicing fitness (ln)” value was -3.09 ± 0.15 (30 °C) and -2.38 ± 0.15 (37 °C). As for CAUCAGCAAUAUUACGUCCU, the “self-splicing fitness (ln)” value reads like this: (30 °C) -3.78 ± 0.22; (37 °C) -1.91 ± 0.22.

As for CAUCAGCAAUAUUACGUCUU, the “self-splicing fitness (ln)” value by setting is: (30 °C) -3.53 ± 0.14; (37 °C) -2.19 ± 0.12. Consider CAUGAGCAAUAUUACGAAAA, for which the “self-splicing fitness (ln)” value runs as follows: (30 °C) -3.45 ± 0.34; (37 °C) -1.22 ± 0.2. In the case of CAUGAGCAAUAUUACGAACA, the “self-splicing fitness (ln)” value (37 °C) was -2 ± 0.32.

For the sequence CAUGAGCAAUAUUACGAAUC, the “self-splicing fitness (ln)” value (37 °C) was -2.57 ± 0.42. With CAUGAGCAAUAUUACGACGC, the “self-splicing fitness (ln)” value (30 °C) is -3.01 ± 0.23 and the “self-splicing fitness (ln)” value (37 °C) is -1.99 ± 0.3. Turning to CAUGAGCAAUAUUACGAGUC, the “self-splicing fitness (ln)” value reads like this: (30 °C) -4.56 ± 0.28; (37 °C) -3.27 ± 0.22. The like results for CAUGAGCAAUAUUACGCAAC were, in that order, -1.07 ± 0.29 and -1.69 ± 0.43. Turning to CAUGAGCAAUAUUACGCCAU, the “self-splicing fitness (ln)” value (30 °C) was -3.43 ± 0.3. Take CAUGAGCAAUAUUACGCCCU: for the setting “37 °C”, the “self-splicing fitness (ln)” value was -1.18 ± 0.27.

Consider CAUGAGCAAUAUUACGCCGC, for which the “self-splicing fitness (ln)” value (30 °C) is -3.56 ± 0.2 and the “self-splicing fitness (ln)” value (37 °C) is -2.71 ± 0.22. With CAUGAGCAAUAUUACGCCUU, the “self-splicing fitness (ln)” value is, setting by setting: (30 °C) -3.02 ± 0.26; (37 °C) -1.86 ± 0.24. With CAUGAGCAAUAUUACGGAGG, the “self-splicing fitness (ln)” value is -3 ± 0.14 (30 °C) and -2.16 ± 0.18 (37 °C). As to CAUGAGCAAUAUUACGGAUA, the “self-splicing fitness (ln)” value was -3.32 ± 0.22 (30 °C) and -1.68 ± 0.24 (37 °C).

As to CAUGAGCAAUAUUACGGAUC, where the note is “37 °C”, the “self-splicing fitness (ln)” value is -2.94 ± 0.33.

Take CAUGAGCAAUAUUACGGAUG: the “self-splicing fitness (ln)” value is -3.02 ± 0.31 (30 °C) and -2.01 ± 0.26 (37 °C). Turning to CAUGAGCAAUAUUACGGCAC, the “self-splicing fitness (ln)” value (37 °C) is -1.42 ± 0.3. As to CAUGAGCAAUAUUACGGCUG, the “self-splicing fitness (ln)” value was -0.641 ± 0.073 (30 °C) and -0.532 ± 0.12 (37 °C).

With CAUGAGCAAUAUUACGGGUU, the “self-splicing fitness (ln)” value runs as follows: (30 °C) -3.04 ± 0.1; (37 °C) -3.05 ± 0.16. As to CAUGAGCAAUAUUACGUAAU, the “self-splicing fitness (ln)” value (30 °C) is -3.04 ± 0.29 and the “self-splicing fitness (ln)” value (37 °C) is -2.73 ± 0.3. For CAUGAGCAAUAUUACGUCGG the same measures were -2.94 ± 0.18 and -1.57 ± 0.21. For CAUGAGCAAUAUUACGUGAG the same measures were -3.88 ± 0.37 and -2.55 ± 0.24. For CAUGAGCAAUAUUACGUGCA the same measures were -1.37 ± 0.15 and -1.97 ± 0.24. In the case of CAUGAGCAAUAUUACGUUGU, the “self-splicing fitness (ln)” value (30 °C) was -4.13 ± 0.29 and the “self-splicing fitness (ln)” value (37 °C) was -3.57 ± 0.19. For the sequence CAUGAGCAAUAUUACGUUUG, the “self-splicing fitness (ln)” value reads like this: (30 °C) -3.57 ± 0.16; (37 °C) -2.89 ± 0.2. For CAUUAGCAAUAUUACGACCU the same measures were -1.77 ± 0.45 and -1.77 ± 0.47. The like results for CAUUAGCAAUAUUACGACGG were, in that order, -0.257 ± 0.094 and -0.0198 ± 0.13. For the sequence CAUUAGCAAUAUUACGAGGC, the “self-splicing fitness (ln)” value (37 °C) is -1.85 ± 0.33. As for CAUUAGCAAUAUUACGAUGA, the “self-splicing fitness (ln)” value is, setting by setting: (30 °C) -2.12 ± 0.2; (37 °C) -1.09 ± 0.15.

Consider CAUUAGCAAUAUUACGAUGU, for which the “self-splicing fitness (ln)” value (30 °C) was -3.45 ± 0.25 and the “self-splicing fitness (ln)” value (37 °C) was -3.38 ± 0.23. With CAUUAGCAAUAUUACGAUUG, the “self-splicing fitness (ln)” value is, setting by setting: (30 °C) -1.49 ± 0.077; (37 °C) -0.759 ± 0.11. For CAUUAGCAAUAUUACGCCAC the same measures were -2.71 ± 0.44 and -2.41 ± 0.35.

As for CAUUAGCAAUAUUACGCCUC, the “self-splicing fitness (ln)” value is -1.17 ± 0.21 (30 °C) and -1.83 ± 0.31 (37 °C). Turning to CAUUAGCAAUAUUACGCGAU, the “self-splicing fitness (ln)” value runs as follows: (30 °C) -3.83 ± 0.32; (37 °C) -1.52 ± 0.23.

With CAUUAGCAAUAUUACGCGUC, the “self-splicing fitness (ln)” value runs as follows: (30 °C) -2.64 ± 0.29; (37 °C) -2.01 ± 0.26. For CAUUAGCAAUAUUACGCUGG the same measures were -2.7 ± 0.13 and -1.67 ± 0.14.

As to CAUUAGCAAUAUUACGCUUA, the “self-splicing fitness (ln)” value is -2.22 ± 0.13 (30 °C) and -2.16 ± 0.15 (37 °C). Regarding CAUUAGCAAUAUUACGCUUC, the “self-splicing fitness (ln)” value (30 °C) was -2.28 ± 0.34. For CAUUAGCAAUAUUACGGACA, the “self-splicing fitness (ln)” value is -2.45 ± 0.22 (30 °C) and -1.22 ± 0.18 (37 °C). For CAUUAGCAAUAUUACGGAUG, the “self-splicing fitness (ln)” value was -3.67 ± 0.39 (30 °C) and -3.03 ± 0.25 (37 °C). Consider CAUUAGCAAUAUUACGGCAG, for which the “self-splicing fitness (ln)” value (30 °C) was -0.186 ± 0.078 and the “self-splicing fitness (ln)” value (37 °C) is -0.0776 ± 0.11. The like results for CAUUAGCAAUAUUACGGCAU were, in that order, -2.99 ± 0.21 and -1.66 ± 0.17. Consider CAUUAGCAAUAUUACGGGAC, for which the “self-splicing fitness (ln)” value was -3.64 ± 0.27 (30 °C) and -2.31 ± 0.25 (37 °C).

Turning to CAUUAGCAAUAUUACGGUAG, the “self-splicing fitness (ln)” value was -0.468 ± 0.062 (30 °C) and -0.027 ± 0.072 (37 °C). Consider CAUUAGCAAUAUUACGUACG, for which the “self-splicing fitness (ln)” value was -0.341 ± 0.09 (30 °C) and 0.593 ± 0.12 (37 °C). On to CAUUAGCAAUAUUACGUACU, for which the “self-splicing fitness (ln)” value (30 °C) is -3.11 ± 0.18 and the “self-splicing fitness (ln)” value (37 °C) was -1.8 ± 0.15.
